According to patent publication US9289381B2, “Stabilization and storage of biological pharmaceutical compositions” (The University of North Carolina at Charlotte, priority 2009, dated 2016):
“And” between values parts separate entries of the source, which are not always exact repeats. Equal values may be shown once.

Columns and labels:
[1] = Microcalorimetry (DSC) of 1 mg/ml HEWL solutions in 0-40% w/w CDHP or 20% choline chloride in 0.1M NaOAc; type: physicochemical
Experimental: All samples were prepared in triplicate. A MicroCal VP-DSC microcalorimeter was used to assess thermal structural stability of all samples. […] HEWL solutions were tested similarly with no dilution of the samples. Between samples, during the filling period of 15° C. to 25° C., the sample cell of the DSC was flushed with at least 25 ml distilled H2O, then at least 15 ml NaOAc to ensure no sample residue remained behind. Thermal profiles, enthalpy changes, and transition temperatures were obtained with Origin software.

[2] = system: micrococcus lysodeikticus; experiment: Micrococcus lysodeikticus turbidimetric assay of HEWL enzyme activity; type: biochemical; conditions: formulated in NaOAc compared with 80% w/w CDHP, 10 and 100 mg/ml, 5 months
[3] = Sedimentation analysis of HEWL dispersions (centrifugation, BCA); type: physicochemical; conditions: HEWL dispersion in 80% w/w CDHP, 75 minutes at 15000 RPM
Experimental: The presence of any CDHP crystals was also noted. […] Images were taken using SlideBook.
The second approach to verify these sample compositions was to determine the amount of protein in the dispersed phase after separation of the solid and liquid components by centrifugation. To achieve separation of these components, solutions were centrifuged for 75 minutes at 15000 RPM, about 10% remained in the supernatant. Both the decanted supernatant and the pellet, which was re-suspended in buffer, were analyzed for protein content. It was observed that ˜90% of the formulated protein was contained in the pellet. The remaining about 10% of the formulated protein was found in the supernatant. […] Although the supernatants appeared clear it is possible that there are sub-visible particles of lysozyme in the supernatant that resist sedimentation at this rate.

[4] = 350 mg/ml vs 1 mg/ml, aqueous solvent; cited from earlier work
[5] = Microcalorimetry (DSC) of HEWL dispersions stored in 80% w/w CDHP or 0.1M NaOAc; type: physicochemical; conditions: for Enthalpy of unfolding of HEWL: stored at 10 mg/ml in 0.1M NaOAc
Experimental: The samples were formulated in 2 ml silanized glass vials to reduce protein-surface interactions, covered with cap and septa, wrapped with parafilm to ensure no drying out of the sample, and stored away from sunlight. They were stirred for at least 24 hours until a homogeneous distribution of protein was obtained. […] The 35 silanized vials were exposed to UV light for 24 hours to ensure sterility. Control samples at equivalent concentrations were also prepared in triplicates in 0.1M NaOAc buffer (pH 4). Samples were tested for thermal stability via microcalorimetry and functional activity via the micrococcus lysodeikticus assay at monthly intervals.
A MicroCal VP-DSC microcalorimeter was used to assess thermal structural stability of all samples. Baseline repeatability was established with a minimum of 5 buffer-buffer scans. […] HEWL solutions were tested similarly with no dilution of the samples. Between samples, during the filling period of 15° C. to 25° C., the sample cell of the DSC was flushed with at least 25 ml distilled H2O, then at least 15 ml NaOAc to ensure no sample residue remained behind. Thermal profiles, enthalpy changes, and transition temperatures were obtained with Origin software.
All formulations were diluted to 0.1-0.5 mg/ml for testing. This allows one to observe how well protein thermal stability and structural integrity is maintained following storage and then dilution into a solution of similar composition as the environment of the body.

[6] = 20% w/w Choline Chloride in 0.1M NaOAc

**Q.** Which “Gibbs free energy change at 25 C.” value ([1]; 0% w/w CDHP) does the source give for “HEWL: hen egg white lysozyme (HEWL), a well characterized protein, purchased from Worthington Biochem” here?
**A.** The value was 15.57794 kcal/mol and 14.4963 kcal/mol and 15.03024 kcal/mol.

**Q.** And the Tm ([1]; 0% w/w CDHP in 0.1M NaOAc)?
**A.** The Tm was 75.18 °C and 75.19 °C and 75.25 °C.

**Q.** And the ΔH ([1]; 0% w/w CDHP in 0.1M NaOAc)?
**A.** The ΔH was 104.019 kcal/mol and 107.8 kcal/mol and 100.216 kcal/mol.

**Q.** And the ΔS ([1]; 0% w/w CDHP in 0.1M NaOAc)?
**A.** The ΔS was 298.62 cal/mol K and 309.47 cal/mol K and 287.65 cal/mol K.

**Q.** And the “Gibbs free energy change at 25 C.” value ([1]; 5% w/w CDHP)?
**A.** The value was 15.91862 kcal/mol and 15.48014 kcal/mol and 14.73002 kcal/mol.

**Q.** And the Tm ([1]; 5% w/w CDHP in 0.1M NaOAc)?
**A.** Its Tm is 76.08 °C and 76.07 °C and 75.4 °C.

**Q.** And the ΔH ([1]; 5% w/w CDHP in 0.1M NaOAc)?
**A.** Its ΔH is 100.408 kcal/mol and 108.54 kcal/mol and 106.838 kcal/mol.

**Q.** What about the ΔS ([1]; 5% w/w CDHP in 0.1M NaOAc) of the same substance?
**A.** Its ΔS is 287.51 cal/mol K and 310.81 cal/mol K and 306.57 cal/mol K.

**Q.** And the “Gibbs free energy change at 25 C.” value ([1]; 10% w/w CDHP)?
**A.** Its value is 15.05244 kcal/mol and 16.93442 kcal/mol and 15.29508 kcal/mol.

**Q.** And the Tm ([1]; 10% w/w CDHP in 0.1M NaOAc)?
**A.** Its Tm is 76.08 °C and 76.10 °C and 77.09 °C.

**Q.** What about the ΔH ([1]; 10% w/w CDHP in 0.1M NaOAc) of the same substance?
**A.** Its ΔH is 104.26 kcal/mol and 102.581 kcal/mol and 113.549 kcal/mol.

**Q.** And the ΔS ([1]; 10% w/w CDHP in 0.1M NaOAc)?
**A.** The ΔS was 298.54 cal/mol K and 293.72 cal/mol K and 324.21 cal/mol K.

**Q.** What about the “Gibbs free energy change at 25 C.” value ([1]; 20% w/w CDHP) of the same substance?
**A.** The value was 18.36296 kcal/mol and 17.40526 kcal/mol and 17.75496 kcal/mol.

**Q.** And the Tm ([1]; 20% w/w CDHP in 0.1M NaOAc)?
**A.** The Tm was 78.82 °C and 78.94 °C and 78.79 °C.

**Q.** And the ΔH ([1]; 20% w/w CDHP in 0.1M NaOAc)?
**A.** Its ΔH is 115.791 kcal/mol and 119.528 kcal/mol and 113.549 kcal/mol.

**Q.** And the ΔS ([1]; 20% w/w CDHP in 0.1M NaOAc)?
**A.** Its ΔS is 328.98 cal/mol K and 339.48 cal/mol K and 322.63 cal/mol K.

**Q.** What about the “Gibbs free energy change at 25 C.” value ([1]; 20% w/w Choline Chloride) of the same substance?
**A.** Its value is 13.3979 kcal/mol and 12.59732 kcal/mol and 12.72542 kcal/mol.

**Q.** What about the Tm [1, 6] of the same substance?
**A.** Its Tm is 72.47 °C and 72.62 °C and 72.36 °C.

**Q.** What about the ΔH [1, 6] of the same substance?
**A.** Its ΔH is 92.354 kcal/mol and 96.972 kcal/mol and 91.615 kcal/mol.

**Q.** And the ΔS [1, 6]?
**A.** Its ΔS is 267.21 cal/mol K and 280.45 cal/mol K and 265.16 cal/mol K.

**Q.** And the “Gibbs free energy change at 25 C.” value ([1]; 30% tw/w CDHP)?
**A.** The value was 20.716 kcal/mol and 17.0974 kcal/mol and 22.40708 kcal/mol.

**Q.** And the Tm ([1]; 30% w/w CDHP in 0.1M NaOAc)?
**A.** The Tm was 81.86 °C and 82.00 °C and 81.80 °C.

**Q.** And the ΔH ([1]; 30% w/w CDHP in 0.1M NaOAc)?
**A.** The ΔH was 139.533 kcal/mol and 128.741 kcal/mol and 106.557 kcal/mol.

**Q.** What about the ΔS ([1]; 30% w/w CDHP in 0.1M NaOAc) of the same substance?
**A.** The ΔS was 393.04 cal/mol K and 362.5 cal/mol K and 300.2 cal/mol K.

**Q.** And the “Gibbs free energy change at 25 C.” value ([1]; 40% w/w CDHP)?
**A.** Its value is 25.634 kcal/mol and 23.8304 kcal/mol and 24.0018 kcal/mol.

**Q.** What about the Tm ([1]; 40% w/w CDHP in 0.1M NaOAc) of the same substance?
**A.** Its Tm is 86.27 °C and 86.39 °C and 86.37 °C.

**Q.** And the ΔH ([1]; 40% w/w CDHP in 0.1M NaOAc)?
**A.** The ΔH was 140.49 kcal/mol and 149.751 kcal/mol and 139.216 kcal/mol.

**Q.** What about the ΔS ([1]; 40% w/w CDHP in 0.1M NaOAc) of the same substance?
**A.** The ΔS was 390.9 cal/mol K and 416.5 cal/mol K and 307.2 cal/mol K.

**Q.** And the “enzyme activity over time” value [2]?
**A.** The value was “degrades faster”.

**Q.** What about the “formulated protein contained in the pellet” value [3] of the same substance?
**A.** The value was about 90%.

**Q.** And the “formulated protein found in the supernatant” value [3]?
**A.** The value was “about 10%”.

**Q.** And the “decrease of thermal transition midpoint temperature at the higher concentration” value [4]?
**A.** The value was about 5 °C.

**Q.** And the “enthalpic change during unfolding at 1 month, % of the maximum (average)” value ([5]; 10 mg/ml HEWL control formulation (0.1M NaOAc))?
**A.** The value was 64%.

**Q.** And the “enthalpic change during unfolding at 1 month, % of the maximum (average)” value ([5]; 10 mg/ml HEWL in 80% w/w CDHP)?
**A.** The value was 87%.

**Q.** And the “enthalpic change during unfolding at 1 month, % of the maximum (average)” value ([5]; 100 mg/ml HEWL control formulation (0.1M NaOAc))?
**A.** The value was 60%.

**Q.** What about the “enthalpic change during unfolding at 1 month, % of the maximum (average)” value ([5]; 100 mg/ml HEWL in 80% w/w CDHP) of the same substance?
**A.** The value was 85%.

**Q.** And the “shelf-life (fraction of folded protein, Cp signal)” value ([5]; 80% CDHP wt/wt vs 0.1M sodium acetate pH 4.0, 1-3 months at room temperature)?
**A.** Its value is “superior shelf-life”.

**Q.** What about the “drop of Tm over 5 months” value ([5]; HEWL control formulations (0.1M NaOAc)) of the same substance?
**A.** The value was “between one and two degrees”.

**Q.** And the “drop of Tm over 5 months” value ([5]; HEWL formulated in 80% w/w CDHP)?
**A.** Its value is “less than a degree”.

**Q.** What about the “Enthalpy of unfolding of HEWL” value ([5]; 0 months) of the same substance?
**A.** Its value is 99.49 kcal/mol and 102.53 kcal/mol and 105.48 kcal/mol.

**Q.** What about the “Enthalpy of unfolding of HEWL” value ([5]; 1 month) of the same substance?
**A.** The value was 71.64 kcal/mol and 67.32 kcal/mol and 58.77 kcal/mol.

**Q.** And the “Enthalpy of unfolding of HEWL” value ([5]; 2 months)?
**A.** The value was 53.856 kcal/mol and 52.812 kcal/mol and 56.88 kcal/mol.

**Q.** What about the “Enthalpy of unfolding of HEWL” value ([5]; 3 months) of the same substance?
**A.** Its value is 39.168 kcal/mol and 40.734 kcal/mol and 40.69 kcal/mol.
